Values of other authors, collected in PMC3859915.

Target: IL-15 (Mus musculus) (UniProt P48346)
Sequence of UniProt P48346 (P48346 49-162): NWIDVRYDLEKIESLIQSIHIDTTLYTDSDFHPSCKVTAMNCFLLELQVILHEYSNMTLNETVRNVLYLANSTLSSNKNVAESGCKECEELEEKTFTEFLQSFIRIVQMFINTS

With IL-15Rα (from UniProt Q60819) as the substance, how does the Kd read?
The Kd was 0.014 nM.
